B1: CPEB3 Ribozyme (parent)
chain: UAACAGGGGGCCACAGCAGAAGCGUUCACGUCGCAGCCCCUGUCAGAUUCUGGUGAAUCUGCGAAUUCUGCUGUAUAUCUC

Variants of: B1
Assay: self-cleavage, relative activity (ratio to wild type); higher = more cleavage; in vitro, sequencing
In short: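 Barcoded CPEB3 ribozyme mutants, produced by rounds of error-prone PCR, self-cleaved while being transcribed with T7 RNA polymerase for 5 hours at 37°C and during a subsequent 15 min DNase I step before EDTA was added. Sequencing of template-switched cDNA on Illumina gave cleaved and total reads, and DNA sequencing assigned barcodes to variants. Each variant's relative activity is its cleaved/total read fraction divided by the unmutated ribozyme's fraction, averaged across three batches. A variant needed a minimum of 5 reads.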

Variant | self-cleavage
G7U A13U | 0.34
G7U C39U | 0.19
G8C C32U | 0.2
G7C U43C | 0.36
G7C U43A | 0.24
G7C U26C | 0.35
G7U G63A | 0.33
G8C A15C | 0.29
G8A G52A | 0.3
G7A G73A | 0.48
G8C U67G | 0.15
G8C U67C | 0.15
G8C A56G | 0.17
G7C U80A | 0.37
G7C U80C | 0.27
G7U G55A | 0.08
G7C C37U | 0.24
G7U U26C | 0.15
G7U U26A | 0.21
G8A A75G | 0.21
G8A A75U | 0.24
G8A C62A | 0.07
G8A C62U | 0.22
G7U U31A | 0.07

Variant | self-cleavage
G7U U31C | 0.15
G7A U69A | 0.39
G7A U69C | 0.26
G7U C62G | 0.17
G7U C62U | 0.21
G8A U67G | 0.48
G8A U67A | 0.26
G8A U67C | 0.22
G8A G19A | 0.06
G7A U78C | 0.15
G7A U78G | 0.08
G8C U60A | 0.14
G8C U60C | 0.24
G8A U48C | 0.15
G8A U48G | 0.37
G8A U48A | 0.27
G7U C32U | 0.07
G8A C44A | 0.26
G8A C44U | 0.08
G7C U72C | 0.37
G7C U72G | 0.27
G7A U72C | 0.48
G7U U49C | 0.11
G8C C38U | 0.07

Variant | self-cleavage
G8A C71U | 0.21
G8A C71A | 0.17
G8A U54A | 0.08
G8A U54C | 0.14
G8C A64U | 0.22
G7C U48C | 0.4
G8A C32A | 0.2
G7A U43G | 0.15
G7A U43A | 0.32
G7A U43C | 0.21
G7C G24C | 0.15
G8C U66C | 0.41
G8A U43C | 0.14
G8A U43A | 0.27
G8C U31G | 0.34
G8C U31C | 0.38
G8U A20G | 0.17
G8A C23A | 0.06
G8A C23U | 0.07
G7U C50A | 0.06
G7U | 0.25
G7C | 0.29
G7A G30A | 0.35
G7A G55A | 0.15

Variant | self-cleavage
G7A G55U | 0.2
G7A U67C | 0.25
G7A U67A | 0.17
G7C A15G | 0.21
G7C A15U | 0.18
G7U U69C | 0.19
G7U U69A | 0.2
G7C U41C | 0.2
G8A G73A | 0.18
G7U U60C | 0.1
G7U U58A | 0.25
G7U U58C | 0.2
G8A C59A | 0.06
G8A C39G | 0.06
G8A C39A | 0.21
G8A G63C | 0.19
G7A U60A | 0.37
G7A U60C | 0.11
G7U U43A | 0.09
G7U U43C | 0.38
G7A G53A | 0.19
G7U A45C | 0.2
G7U A45G | 0.22
G7U A45U | 0.14

Variant | self-cleavage
G8A C68A | 0.2
G7U A56G | 0.23
G7U A56U | 0.16
G8A A47G | 0.23
G8A A47U | 0.2
G8A G55A | 0.06
G7C U51C | 0.28
G7C C32U | 0.12
G8A G24A | 0.08
G8U A13U | 0.3
G8U A13G | 0.28
G8A C27U | 0.08
G8A U58C | 0.2
G8C A13U | 0.16
G8A U78A | 0.37
G8A U78C | 0.35
G7U A57G | 0.19
G8U A15G | 0.24
G8U A15U | 0.4
G8A U31A | 0.18
G8A U31G | 0.41
G8A U31C | 0.24
G7C A65G | 0.22
G7C A21G | 0.34

Variant | self-cleavage
G7U A65G | 0.4
G8A C29U | 0.24
G7U U48A | 0.07
G8A U69C | 0.19
G8A U69G | 0.28
G8A U69A | 0.28
G7C A75U | 0.31
G7C U31C | 0.41
G7C U31A | 0.25
G7U A20G | 0.27
G7U A20U | 0.11
G8A A20U | 0.22
G8A A20G | 0.25
G8C U58C | 0.21
G7A U54G | 0.22
G7A U54A | 0.47
G7A U54C | 0.38
G7C U54A | 0.22
G7C U54C | 0.34
G7A U49C | 0.2
G7C U67C | 0.19
G7A U51A | 0.35
G7A U51C | 0.2
G7A U51G | 0.1

Variant | self-cleavage
G7C U69C | 0.2
G7A G24A | 0.08
G8A A65U | 0.06
G8A A65G | 0.14
G8C C27A | 0.19
G8C A18U | 0.23
G8C A18G | 0.27
G8A U80A | 0.29
G8A U80C | 0.19
G7C A57U | 0.19
G7A U48C | 0.16
G7A U48A | 0.31
G8A U66C | 0.12
G7U U51G | 0.2
G7U U51A | 0.21
G7U U51C | 0.28
G8C G33A | 0.06
G8A U72A | 0.07
G8A U72G | 0.12
G8A U72C | 0.26
G7C U60C | 0.2
G8U A18U | 0.16
G8U A18G | 0.14

— the RNAGym collection of RNA variant scans (doi:10.1093/nar/gkz1192)
